Measurements reported in US20260193669A1 (NYKODE THERAPEUTICS ASA, published 2026).

B1: Single chain PreF protein and ferritin (further polypeptide of DNA plasmids IV082 and IV084; also encoded alone by IV080) (other)
chain: QNITEEFYQSTCSAVSKGYLSALRTGWYTSVITIELSNIKENKCNGTDAKVKLIKQELDKYKNAVTELQLLMGSGNVGLGGAIASGVAVCKVLHLEGEVNKIKSALLSTNKAVVSLSNGVSVLTFKVLDLKNYIDKQLLPILNKQSCSISNIETVIEFQQKNNRLLEITREFSVNAGVTTPVSTYMLTNSELLSLINDMPITNDQKKLMSNNVQIVRQQSYSIMCIIKEEVLAYVVQLPLYGVIDTPCWKLHTSPLCTTNTKEGSNICLTRTDRGWYCDNAGSVSFFPQAETCKVQSNRVFCDTMNSRTLPSEVNLCNVDIFNPKYDCKIMTSKTDVSSSVITSLGAIVSCYGKTKCTASNKNRGIIKTFSNGCDYVSNKGVDTVSVGNTLYYVNKQEGKSLYVKGEPIINFYDPLVFPSDEFDASISQVNEKINQSLAFIRKSDELLSGGSSGSSGGSDIIKLLNEQVNKEMQSSNLYMSMSSWCYTHSLDGAGLFLFDHAAEEYEHAKKLIIFLNENNVPVQLTSISAPEHKFEGLTQIFQKAYEHEQHISESINNIVDHAIKCKDHATFNFLQWYVAEQHEEEVLFKDILDKIELIGNENHGLYLADQYVKGIAKSRKSGS
notes: Secreted into supernatant of Expi293F cells; 24-mer by native PAGE; also called further polypeptide (PreF protein)-ferritin nanoparticles, IV082 and IV084
B2: PreF protein and ferritin (further polypeptide of DNA plasmids IV083 and IV085; also encoded alone by IV081) (other)
chain: QNITEEFYQSTCSAVSKGYLSALRTGWYTSVITIELSNIKENKCNGTDAKVKLIKQELDKYKNAVTELQLLMGSGNVGLGGAIASGVAVSKVLHLEGEVNKIKSALLSTNKAVVSLSNGVSVLTFKVLDLKNYIDKQLLPILNKQSCSISNPETVIEFQQKNNRLLEITREFSVNAGVTTPVSTYMLTNSELLSLINDMPITNDQKKLMSNNVQIVRQQSYSIMSIIKEEVLAYVVQLPLYGVIDTPCWKLHTSPLCTTNTKNGSNICLTRTDRGWYCDNAGNVSFFPQAETCKVQSNRVFCDTMNSRTLPSEVNLCNVDIFNPKYDCKIMTSKTDVSSSVITSLGAIVSCYGKTKCTASNKNRGIIKTFSNGCDYVSNKGVDTVSVGNTLYYVNKQEGKSLYVKGEPIINFYDPLVFPSDEFDASISQVNEKINQSLAFINKSDELLSGSGSESQVRQQFSKDIEKLLNEQVNKEMQSSNLYMSMSSWSYTHSLDGAGLFLFDHAAEEYEHAKKLIIFLNENNVPVQLTSISAPEHCFEGLTQIFQKAYEHEQHISESINNIVDHAIKSKDHATFNFLQWYVAEQHEEEVLFKDILDKIELIGNENHGLYLADQYVKGIAKSRKS
notes: Secreted into supernatant of Expi293F cells; 24-mer by native PAGE; also called further polypeptide (PreF protein)-ferritin nanoparticles, IV083 and IV085

Biological target: the molecule itself
Experiment: blue native PAGE and Western blot of supernatant, Motavizumab detection; self-assembly

Protein | binding result
B1 | binds
B2 | binds
